# Data published in the supplement of paper PMC12764529.
# ± gives the half width of the 95% confidence interval.
# Test: folding stability dG unfold from chymotrypsin proteolysis; higher = more stable
# Method in brief: (§1)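 Designed mini-proteins with no cysteine and under 80 residues were kept only if AlphaFold2 dimer inter-PAE was above 15. In a PA-tagged cDNA display construct, they were digested with trypsin and chymotrypsin and then sequenced. K50 was inferred by Bayesian fitting of counts, and unfolding free energy was derived per protease or combined against a sequence-predicted unfolded-state K50 and a shared folded-state K50.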
row,Sequence,folding stability dG unfold
1,SAGGSAGSMSPEEVAERIRQEALARDPNWTVEVTPLPGPRPVLRLEIYRVDPNSDSVTPVSTLVVGSAGGSA [r15_682_JUSTAS],0.516 ± 0.075 kcal/mol
2,SAGGSMKVEVTVTETSTLGDGTRTYTVAVLIDGTPLTFTFPFTSEEEFREAVEEWAKERGVEITLTPSSAGG [r13_750_JUSTAS],4.54 ± 0.049 kcal/mol
3,SMKVKPGEKIKVTVLALFYDKETKKLYLVKAEVEATVELDEDGNLTVKVEVKKVEVVEEMPLDELKELLKSA [r9_423_TrROS_Hall],3.4 ± 0.067 kcal/mol
4,SAGGSAGGSAGGSSMSSGPGRLSITTSTVDTGSFFKPGGEVEGSKTTTVTVTTLLPPSTPSAGGSAGGSAGG [r7_614_JUSTAS],1.27 ± 0.067 kcal/mol
5,SLLELAKQANGPLKINVKSEWVTLPDGTPVEIINVEVSQDPNSDVATVTKTVVDPDKDTSSTSTSTIPLGSS [r1_448_JUSTAS],0.316 ± 0.077 kcal/mol
6,SAGGSAMIITFDKKTGKLTIYNKETGKKIEAEITKIEKIPEDKKYVKIKIKNKKTKKEFEFIFKIKSAGGSA [r15_209_TrROS_Hall],4.39 ± 0.1 kcal/mol
7,SKKKKIKKITLTFTTSDGSTITIEIDADQTVTITLPDGSTITITFDKDTGILTITVTNKDGSKQEFKIELSA [r9_99_TrROS_Hall],3.08 ± 0.051 kcal/mol
8,SAMPLEDMTPEQAEEFAKEFINRFQQENQKKGGPIPPGQEIEIPVRYKGGPVYIKITVTNPGNINIEVESAG [r14_501_TrROS],0.708 ± 0.095 kcal/mol
9,SAGGSAGGSAGPEWYVVMRVENPGTGKEVHFIGPWDDFKEKLPPSNVKMEWHLIPADALKSAGGSAGGSAGG [r11_334_TrROS],0.666 ± 0.06 kcal/mol
10,SAGMDKPLKVLEIGGAILPNTGKVVLKAKVEDPDSNTPLDLTLTLPVVDPVTGKPYIFTASYTYESPLSAGG [r19_129_TrMRF],0.844 ± 0.17 kcal/mol
11,SAGGKKKYRIKITYKDEGKLYEVPEDVKATVDPNNVVYIEVDSKEAVDELVKAIAPKDGLEVEVEPGSAGGS [r8_131_TrMRF],1.18 ± 0.087 kcal/mol
12,SAGGSAGGSAMTVLVMEIKIELRVNEDGSLELRMEIEIKPVEPITLEELAEKLGLSKEELLSAGGSAGGSAG [r3_338_TrROS_Hall],2.91 ± 0.085 kcal/mol
13,SAGGFIRIETPNGKKISPEVREEAEEAIRDGDWDDAVKKISDWLRERFGHPMPIKIEVMMPPPKPPKSAGGS [r8_48_TrROS],1.19 ± 0.11 kcal/mol
14,SAGGSAGGSSVSVSFPSSVTKVEPELNDPNLTTFFESPGLVIKVTVVPGTGKVIIEKKPLSELSAGGSAGGS [r12_858_JUSTAS],-0.663 ± 0.13 kcal/mol
15,SAGGSAGGSAGPPDQNFLIKIKWQENGKKREHTIPIPAENLDEVLDELSPWPGLEVEIIPSAGGSAGGSAGG [r17_50_TrROS],-0.295 ± 0.11 kcal/mol
16,SAGGSAGGSNMPIKNVELHPLPNGWYLIKIRYGGKTRTFLFPPGAPFEIPLPPGMEIDIYPLNSAGGSAGGS [r12_373_TrROS],3.933 ± 0.038 kcal/mol

# Test: folding stability dG unfold (combined trypsin and chymotrypsin); higher = more stable
# Method in brief: as §1
row,Sequence,folding stability dG unfold
1,SAGGSAGGSAGGKKVTITITIKVKEGEEITINGKKITVKPGETITITITITVPPKKKKKSAGGSAGGSAGGS [r10_949_TrROS_Hall],2.19 ± 0.41 kcal/mol
2,SAGGSAGGSAGGMTPIEKEEPHHHMTFTREGDTVSLETFPGSGSIRKTLPSEEEVEKLLSAGGSAGGSAGGS [r10_1104_JUSTAS],0.00761 ± 0.11 kcal/mol
3,SAGGSPNFRIHIEGPEGKTLQYPVDPGFNKPDIQDWLQELGNIEIDQHPNDGWITIRIPKDALDQFSAGGSA [r2_164_TrROS],0.161 ± 0.27 kcal/mol
4,SAGGMVTVDTDPTEDGTLRVTVTVPRPDGPALTLTLDFPPEAGSLAVVLARADEALAAEMARRGLALSAGGS [r8_464_JUSTAS],1.44 ± 0.22 kcal/mol
5,SAGGGPVTVTVTFKPPSTGLTSTVTLPFPNVSSYEEAKERAEELAKEAGGPIETITFTDPATGKAHPLSAGG [r13_771_JUSTAS],0.646 ± 0.23 kcal/mol
6,SAKKKFKVKEVKVTKHKGKFKIGDKEIEKELYTVNVVIEDENGNKYPFTFTFEKPEELKKFVEKLEEEKSAG [r14_36_TrMRF],3.61 ± 0.2 kcal/mol
7,SAGGSWVIIIQITIRNPGEERKITIPMEEIQGMPLEQIADNLRKLPGIGDVTIEIQEFPPPKPNDPSAGGSA [r2_282_TrROS],2.31 ± 0.2 kcal/mol
8,SAGGSAGGSAGGMSLSTSVESLTVFDSSGNVLEERTITVEKTVPLFGKPVYVYPTPSNTLSAGGSAGGSAGG [r17_325_JUSTAS],0.265 ± 0.12 kcal/mol
9,SAGDVVEIEITYWVPPDEMTVDEFVDHIMSMLPGVKVKSIEIDEIHPYPDGWYEVTVNYTIEVPPGQEISAG [r5_682_TrROS],2.81 ± 0.16 kcal/mol
10,SMSLVVSEEVDPATGTTTVTTTFPSPGVTVTATASAAGDSVTTTVTTTSPAPSAPTTTTTTTPVAPPGTDAS [r1_404_JUSTAS],0.806 ± 0.087 kcal/mol
11,SAGMTFTVDVEEETFSETKVIRVPVEYDDPALVDVAAAEIREALGIPESESVTVEREPRRATITIVIPASAG [r14_804_JUSTAS],0.743 ± 0.051 kcal/mol
12,SAGGKEVLTVTVEVEIDGVLIRVEAEVTLDEDGNLTVTITRIEIRPLPPPKIDLRDLTDEQRKELGIESAGG [r13_964_TrROS_Hall],1.93 ± 0.13 kcal/mol
13,SAGGKPTQTITITLKDGRTLTIKVGQTVTITLDNGKTITVTVKDATITVKDGKVTITVNGKTYTFTVKSAGG [r13_643_TrROS_Hall],4.62 ± 0.23 kcal/mol
14,SAMVLDLTELLREKAAEIRKADPRPLTPEELRELAREAAEELAKETGKPITEIRVEETDEWPRITAVVLSAG [r14_147_JUSTAS],0.461 ± 0.24 kcal/mol
15,SAGGSAGGSAGGSDNSITLDFFFNNYYIKITFNPWNGNLEIDEVQKVPPPPKPKDPGDKSAGGSAGGSAGGS [r4_21_TrROS],2.94 ± 0.22 kcal/mol
16,SAGGSAGSMSPEEVAERIRQEALARDPNWTVEVTPLPGPRPVLRLEIYRVDPNSDSVTPVSTLVVGSAGGSA [r15_682_JUSTAS],0.77 ± 0.086 kcal/mol

row,Sequence,folding stability dG unfold
1,SAGGSMKVEVTVTETSTLGDGTRTYTVAVLIDGTPLTFTFPFTSEEEFREAVEEWAKERGVEITLTPSSAGG [r13_750_JUSTAS],4.25 ± 0.14 kcal/mol
2,SMKVKPGEKIKVTVLALFYDKETKKLYLVKAEVEATVELDEDGNLTVKVEVKKVEVVEEMPLDELKELLKSA [r9_423_TrROS_Hall],2.97 ± 0.18 kcal/mol
3,SAGGSAGGSAGGSSMSSGPGRLSITTSTVDTGSFFKPGGEVEGSKTTTVTVTTLLPPSTPSAGGSAGGSAGG [r7_614_JUSTAS],0.908 ± 0.054 kcal/mol
4,SLLELAKQANGPLKINVKSEWVTLPDGTPVEIINVEVSQDPNSDVATVTKTVVDPDKDTSSTSTSTIPLGSS [r1_448_JUSTAS],-0.0266 ± 0.14 kcal/mol
5,SAGGSAMIITFDKKTGKLTIYNKETGKKIEAEITKIEKIPEDKKYVKIKIKNKKTKKEFEFIFKIKSAGGSA [r15_209_TrROS_Hall],3.81 ± 0.38 kcal/mol
6,SKKKKIKKITLTFTTSDGSTITIEIDADQTVTITLPDGSTITITFDKDTGILTITVTNKDGSKQEFKIELSA [r9_99_TrROS_Hall],2.6 ± 0.11 kcal/mol
7,SAMPLEDMTPEQAEEFAKEFINRFQQENQKKGGPIPPGQEIEIPVRYKGGPVYIKITVTNPGNINIEVESAG [r14_501_TrROS],0.663 ± 0.13 kcal/mol
8,SAGGSAGGSAGPEWYVVMRVENPGTGKEVHFIGPWDDFKEKLPPSNVKMEWHLIPADALKSAGGSAGGSAGG [r11_334_TrROS],0.494 ± 0.061 kcal/mol
9,SAGMDKPLKVLEIGGAILPNTGKVVLKAKVEDPDSNTPLDLTLTLPVVDPVTGKPYIFTASYTYESPLSAGG [r19_129_TrMRF],0.681 ± 0.12 kcal/mol
10,SAGGKKKYRIKITYKDEGKLYEVPEDVKATVDPNNVVYIEVDSKEAVDELVKAIAPKDGLEVEVEPGSAGGS [r8_131_TrMRF],0.916 ± 0.093 kcal/mol
11,SAGGSAGGSAMTVLVMEIKIELRVNEDGSLELRMEIEIKPVEPITLEELAEKLGLSKEELLSAGGSAGGSAG [r3_338_TrROS_Hall],3.03 ± 0.14 kcal/mol
12,SAGGFIRIETPNGKKISPEVREEAEEAIRDGDWDDAVKKISDWLRERFGHPMPIKIEVMMPPPKPPKSAGGS [r8_48_TrROS],0.995 ± 0.18 kcal/mol
13,SAGGSAGGSSVSVSFPSSVTKVEPELNDPNLTTFFESPGLVIKVTVVPGTGKVIIEKKPLSELSAGGSAGGS [r12_858_JUSTAS],0.342 ± 0.053 kcal/mol
14,SAGGSAGGSAGPPDQNFLIKIKWQENGKKREHTIPIPAENLDEVLDELSPWPGLEVEIIPSAGGSAGGSAGG [r17_50_TrROS],-0.376 ± 0.19 kcal/mol
15,SAGGSAGGSNMPIKNVELHPLPNGWYLIKIRYGGKTRTFLFPPGAPFEIPLPPGMEIDIYPLNSAGGSAGGS [r12_373_TrROS],3.84 ± 0.043 kcal/mol
